Experimental data as given in FireProtDB (doi:10.1021/bi00492a006).

B1: Ribonuclease, P00648 (parent)
chain: MMKMEGIALKKRLSWISVCLLVLVSAAGMLFSTAAKTETSSHKAHTEAQVINTFDGVADYLQTYHKLPDNYITKSEAQALGWVASKGNLADVAPGKSIGGDIFSNREGKLPGKSGRTWREADINYTSGFRNSDRILYSSDWLIYKTTDHYQTFTKIR

Variants of: B1
Conditions: Bacillus amyloliquefaciens; pH 6.3; 25 °C; Urea; Fluorescence; MES-NaOH 50 mM; reversible: yes; structure 1BNI; whole UniProt chain shown

In the case of T63R, the “ddG of mutation (higher = less stable)” value is reported as 0.78 kcal/mol, the denaturant m value is reported as 1.94 kcal/mol/M and the “denaturant midpoint (higher = more stable)” value (shortened to “denaturant midpoint”) is reported as 4.75 M. It also gave an unfolding free energy of 9.23 kcal/mol.

In the case of D59A, the “ddG of mutation (higher = less stable)” value is reported as -0.11 kcal/mol, the denaturant m value is reported as 2.33 kcal/mol/M and the “denaturant midpoint” value is reported as 4.33 M. For the same variant, the unfolding free energy was 10.1 kcal/mol.

In the case of D59A T63R, the “ddG of mutation (higher = less stable)” value is reported as 0.13 kcal/mol, the denaturant m value is reported as 2.24 kcal/mol/M and the “denaturant midpoint” value is reported as 4.4 M. It also gave an unfolding free energy of 9.88 kcal/mol.
